Experimental data: US20200147199A1 (published 2020)
Positions count from the first letter of the chain named.

B1: Z035 (BRA112_71) (antibody, V domains shown)
VH: EVQLLESGGGLIQPGGSLRLSCAASGFTFSSYAMSWVRQAPGKGLEWVSGISGSGGASDNGASRYYADSVKGRFSISRDNSKNTVYLQMNSLRAEDTAVYYCAKDRLSGGFGELFQKWGQGTLVTVSS
VL: DIQMTQSPSTLAASVGDRVTITCRASQNINSWLAWYQQKPGKAPKFLIYKASTLESGAPSRFSGSGSGTEFTLTISSLQPDDFATYYCQHYYSYPYTFGQGTKVEIK
B2: Z042 (antibody, V domains shown)
VH: QVQLQESGPGLVKPSETLSLSCTVSSGSISNYYWNWIRQPPGKGLEWIGYIYYSGSISYNPSLKSRVTISVDTSKNQLSLKLNSVTAADTAVYYCARGPDNRYWGQGTLVTVSS
VL: EIVMTQSPATLSVSPGERVTLSCRASQSVSYNLAWHQQKPGQAPRLLIYGASTRATGIPARFSGSGSGTEFTLTISNMQSEDFAVYYCQQYNNWPPVFTFGPGTKVDIK
B3: Z004 (MEX18_89) (antibody, V domains shown)
VH: EVQLLESGGGLVQPGGSLRLTCATSGFTFRDYAMSWVRQAPGKGLEWVSSYSGIDDSTYYADSVKGRFTISRDNSKSTLSLHMNSLRAEDSALYFCAKDRGPRGVGELFDSWGQGTLVTVSS
VL: DIQMTQSPSTLSASVGDRVTITCRASQSISKWLAWYQQKPGKAPKLLIYTTSTLKSGVPSRFSGSGSGTEFTLTISSLQPDDFATYYCQHFYSVPWTFGQGTKVEIK
B4: Z043 (antibody, V domains shown)
VH: QVQLVQSGAEVKKPGASVKVSCKTSGYTFTSYYMNWVRQAPGQGLEWMGIIKPSDGSTNYAQKFQGRVTMTRDTSTSTVYMELRSLRSEDTAVYYCGRDSKGWLQLRGDIDYWGQGTLVTVSS
VL: QSALTQPASVSGSPGQSITISCAGTSSDVGNYNLVSWYQQHPGKAPKLLIYEVSKRPSGVSNRFSGSKSGNTASLTISGLQAEDEADYYCCSYAGSSTYVFGTGTEVTVL
B5: Z006 (MEX105_42) (antibody, V domains shown)
VH: EVQLLESGGGLVQPGGSLRLSCAASGFTFKNYAMAWVRQAPGKGLEWVSLLYNSEESTYYADSVKGRFTISRDNSKNTLFLQMNRLRVEDTAVYFCVRDRSNGWSSINLWGRGTLVTVSS
VL: DIQMTQSPSTLSASVGDRVTMTCRASQTISGWLAWYQQKPGKAPKLLIYQASRLESGIPSRFSGSGSGTEFTLTISSLQPDDVATYYCQQYSTFWTFGLGTKVEIK
B6: Z018 (antibody, V domains shown)
VH: QVQLVQSGPGVKKPGASVKVSCKASGYIFSDYYILWVRQAPGQGLEYMGWMNPISGFTHYAQNFQGRVTMTRDTSISTAYMELTRLASDDTAVYYCARGGRINSPLGFDPWGQGTLVTVSS
VL: EIVLTQSPATLSLSPGERATLSCRASQSISTFSLAWYQQKFGQAPRLLIYGASSRATGIPDRFSGSGSGTDFTLTISRLEPEDFAVYYCQQYVSSPLTFGGGTKVEIK
B7: Z001 (MEX18_21) (antibody, V domains shown)
VH: EVQLLESGGGLVQPGGSRRLSCATSGFSFDTYAMSWLRQAPGKGLEWVSSFSGLDDSTYYADSVKGRFTISRDNSKNTLYLQMNSLRAEDTAIYYCAKDRGPRGIGELFDFWGQGTLVTVSS
VL: B3 VL with K31R, T50K, G57E, Y92H
B8: Z012 (antibody, V domains shown)
VH: QVQLVQSGAEVKKSGASVKVSCKASGYSFTTNYIHWVRQAPGQGPEWMGIINPRGGSTTYAQKFQGRVLMTSDTSTSTVYMELSSLRSEDRAVYYCARGKNHQTTVAVLSWYYGMDVWGQGTTVTVSS
VL: DIQMTQSPSSVSASVGDRVTITCRASQGISSWLAWYQQKPGKAPKLLISAASSLQSGVPSRFSGSGSGTDFTLTISNLQPEDFATYFCQQANSFPYTFGQGTKLEIK
B9: Z041 (antibody, V domains shown)
VH: QVQLVQSGAEVKKPGSSVRLSCKASGGSYSTYAISWVRQAPGQGLEWMGRIIPSLGKTHLAQKFQGRVTFTADESTTTVYMILSSLKSEDTALYYCATPDWQYSSAYSLDHWGQGTLVTVSS
VL: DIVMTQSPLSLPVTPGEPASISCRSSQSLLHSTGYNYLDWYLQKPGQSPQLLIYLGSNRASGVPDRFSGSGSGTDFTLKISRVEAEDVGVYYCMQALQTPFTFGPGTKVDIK
B10: Z037 (antibody, V domains shown)
VH: QVQLQESGPGLVKPSETLSLTCSVSGYFISSGHYWGWIRQSPGKGLEWIASIYQSGSKFQTGNTYYNPSLESRVTISMDTSKNQFSLKLSSVTAADTAVYFCARDARSRSWDRTGFFGPWGQGILVTVSS
VL: EIVLTQSPGTLSLSPGERATLSCRASQSLSSSFLAWYQQKPGQSPRLLIYGTSSRDTGIPDRFSGSGSGTDFTLTISRLEPEDSAVYYCQQYGSSWGTFGQGTKLEIK
B11: Z024 (antibody, V domains shown)
VH: EVQLVQSGAEVRKPGESLRISCKTSGYTFTSHWVAWVRQMPGKGLEWMGIIYPGDSDTRYSPSFQGQISISADKSINTAYLQWSSLKASDTGIYYCARHDGRGYCSPTRCFFSGMDVWGQGTTVTVSS
VL: DIQLTQSPSSLSASVGDRVTITCRASQSISNYLNWYQQKPGKAPNLLIYAASSLQSGVPSRFSGSGSGTDFTLTISSLQPEDYAIYYCQQTDRTPLTFGQGTKVEIK
B12: Z021 (MEX84_p4-23) (antibody, V domains shown)
VH: QVQLQESGPGLVKPSETLSLTCTVSGGSIDTYYWSWIRQTPGKGLEWIGCFYYSVDNHFNPSLESRVTISVDTSKNQFSLKMTSMTASDTAVYYCARNQPGGRAFDYWGPGTLVTVSS
VL: EIVLTQSPATLSLSPGQRATLSCRASQSVSNYFAWYQQKPGQAPRLLIYDTSKRATGTPARFSGSGSGTDFTLTISSLEPEDFAVYYCQERNNWPLTWTFGLGTKVEIK
B13: Z031 (BRA112_46) (antibody, V domains shown)
VH: EVQLLESGGGLVQPGGSLRLSCVASGFTFGSYGMAWVRQAPGKGLEWISSISSIDPSTYYADSVKGRFTVSRDNSENTLYLHMSSLKVEDTAVYFCAKDRLNGGFGELFASWGQGTLVTVSS
VL: DIQMTQSPSTLSASVGDSVTITCRASQSISSWLAWYQQKPGKAPKFLIHKASSLESGIPSRFSGSGSGTEFTLTINNLQPDDFATYYCQHYHSYPWTFGQGTKVEIK
B14: Z028 (MEX84_p4-53) (antibody, V domains shown)
VH: EVQLLESGGGLVQPGGSLRLSCAASGFTFSAYAMSWVRQAPGKGLEWVSSINGHSDSTYFADSVKGRFTISRDNSKNTLYLQMNSLRAEDTALYYCAKDRLREGIGELFHSWGQGTLVTVSS
VL: B3 VL with V15I, S30T, K31P, L46F, T50Q, T53I, K55E, F91Y, Y92H, V94Y
B15: Z014 (antibody, V domains shown)
VH: EVQLLESGGDLVQPGGSLRLSCAASGFTFSSYGMSWVRQAPGKGLEWVSSISGFDPSTYYADSVRGRFTIARDNSKNTLYLQMKSLRVEDTAIYYCAKDRLVRGFGEVLDSWGQGTLVTVSS
VL: DIQMTQSPSSLSASVGDRVTITCRASQGISNYLAWYQQKPREVPKLLIYAASTLHSGVPSRFSGSGSGTDFTLTISGLQPEDVATYYCQKYNSVPWTFGQGTKVEIK
B16: Z010 (MEX105_88) (antibody, V domains shown)
VH: EVQLLESGGGLVQPGGSLRLSCAASGFTFSNYAMAWVRQAPGKGLEWVSLIYSGDDSTYYADFVKGRFTISRHNSKNTLSLQMNSLRAEDTAIYYCVKDRGTGWSSIVHWGQGTLVTVSS
VL: B5 VL with M21I, G31N, R53S, I58V, V83F, F94Y, L99Q
B17: Z038 (BRA12_2) (antibody, V domains shown)
VH: EVQLLESGGGLVQPGGSLRLSCEASGFTFSNYAMNWVRQAPGKGLEWVSTLGATDNSGDSTYYVESAKGRFTISRDNSKNTLYLQMNSLRVEDTAVYFCAKDRTGNIGAGTGYFDKWGQGTLVTVSS
VL: DIQMTQSPSTLSASVGDRVTITCRASHRISGWLAWYQQKPGKAPKLLIYQASGLESGVPSRFSGSGYGTEFTLTISSLQADDFATYYCQQYNNYPWTFGQGTKVEIK
B18: Z039 (antibody, V domains shown)
VH: EVQLLESGGGLVQPGGSLRLSCAASGYIFDNYAMSWVRQAPGKGLEWVSYINGGGYGTDYADSVKGRFTISRDNSKRILYLQMNSLRVGDTAVYYCAKSPYVGGYGLPGDSWGQGTLVTVSS
VL: EIVLTQSPGTLSLSPGERATLSCRASQTIFFNYLAWYQKKPGQAPRLLVHGASTRATGIPDRFSGSGSGTDFTLTINSLDPEDFAVYYCQQYGDSPPTFGGGTKVEIK

Target: ZIKV E Domain III (ZEDIII), polyhistidine-AviTag, produced in HEK-293-6E cells
Experiment: ELISA

Row | Binder | EC50 [µg/mL]
1 | B1 | 0.0284
2 | B2 | 0.0586
3 | B3 | 0.0237
4 | B4 | 0.188
5 | B5 | 0.0351
6 | B6 | 0.0742
7 | B7 | 0.0206
8 | B8 | 0.2
9 | B9 | 0.218
10 | B10 | > 0.4
11 | B11 | > 4
12 | B12 | 0.0554
13 | B13 | 0.0341
14 | B14 | 0.0371
15 | B15 | 0.106
16 | B16 | > 0.4
17 | B17 | 0.0581
18 | B18 | 0.0885
